The record followed here is patent US20240016892A1 (SHATTUCK LABS, published 2024).

The target in experiment [1] is T1, recombinant human LTβR (human, UniProt P36941 31-227, limits assumed).
T1 construct: Bought from Acro Biosystems or Sino Biological; construct limits and tag not specified; also called rhLTβR; TNFRSF3
The experiment can be described thus: BLI (Octet), affinity for recombinant human LTβR compared with Fc-LIGHT. As for the experimental part:
(§1) Bio-Layer interferometry-based affinity testing was used to determine the on-rates (Ka), off-rates (Kd) and binding affinities (KD) of the TIGIT-Fc-LIGHT chimeric protein to intended binding targets, using histidine- or biotin-tagged versions of the human recombinant proteins (PVR, HVEM, LTβR, PVRL2, PVRL3, and Nectin-4; purchased from Acro Biosystems or Sino Biological). Commercially available or internally produced single-sided fusion protein controls (TIGIT-Fc and Fc-LIGHT) were also tested in parallel. Targets were immobilized at a concentration of 3 μg/mL in Kinetics buffer (PBS/0.1% Tween-20/1% BSA; pH7.0) to anti-pentaHis or streptavidin coated biosensors. Direct binding of fusion proteins to recombinant target proteins was performed on an Octet-Red96 BLI instrument, using association and dissociation times of 90 and 120 seconds, respectively.
(§2) Protein-protein interactions (PPI) between the fusion proteins and their cognate binding partners were characterized using both recombinant protein and cell-based methods. First, bio-layer interferometry-based affinity testing was used to assess the kinetics of receptor/ligand binding.

Experiment [2] concerns the target T2, recombinant human CD113 (PVRL3) (human, UniProt Q9NQS3 58-404).
T2 construct: also called rhCD113 (PVRL3); Nectin-3
Nature of the experiment: BLI (Octet-Red96), tagged rhCD113 (PVRL3) immobilised on biosensor. As for the experimental part:
as §1

For experiment [3], the target named is T3, recombinant human LTβR-Fc (human, UniProt P36941 31-227, limits assumed).
T3 construct: not shown: Fc of the bought fusion (Acro Biosystems); not described
T3 sequence (P36941 31-227 limits assumed): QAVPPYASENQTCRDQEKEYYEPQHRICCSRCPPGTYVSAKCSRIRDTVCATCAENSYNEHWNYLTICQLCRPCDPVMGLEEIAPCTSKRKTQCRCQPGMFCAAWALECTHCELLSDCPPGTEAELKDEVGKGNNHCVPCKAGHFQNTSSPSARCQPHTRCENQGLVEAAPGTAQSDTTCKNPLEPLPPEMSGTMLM
Nature of the experiment: MSD sandwich 'Dual - Potency #1': capture LTβR-Fc, TIGIT-Fc-LIGHT titrated, detection PVR-Biotin. The procedure:
(§3) For the TIGIT-Fc-LIGHT chimeric protein; MSD Multi-Array plates (MSD) were pre-coated overnight with recombinant human LTβR-Fc or HVEM-Fc (Acro Biosystems) at 4° C. The plates were blocked with Diluent 100 (MSD) for at least one hour at room temperature on a shaker. After washing, analysis samples were added and then serially diluted 3-fold and loaded in duplicate wells to generate 8-10 test concentrations. The bound the TIGIT-Fc-LIGHT chimeric protein was detected with recombinant biotinylated human PVR (Acro Biosystems). Streptavidin conjugated to ruthenium (MSD), was added to bind the biotin labeled detector. MSD Gold Reading buffer (MSD) was added to the plate, and upon application of an electrical charge, an electrochemiluminescent signal was produced and detected with the MSD MESO QuickPlex SQ 120MM, Model 1300, to generate relative light units (RLU). Analogous assays were performed using mTIGIT-Fc-LIGHT and murine recombinant PVR, HVEM, and […] (Acro Biosystems).
(§4) The binding of the TIGIT-Fc-LIGHT chimeric protein to its receptors was characterized by Meso Scale Discovery (MSD) ELISA assays. […] Binding of the chimeric protein to LTβR-Fc was detected using an PVR-Biotin and using an electrochemiluminescence (ECL) readout. […] Binding of the chimeric protein to HVEM-Fc was detected using an PVR-Biotin and using an electrochemiluminescence (ECL) readout. […]

The target of experiment [4] is T4, recombinant human PVR (human, UniProt P15151 21-343).
T4 construct: The tagged PVR of the BLI assay and the biotinylated PVR used as detector in MSD are treated as one molecule; also called rhPVR; CD155
T4 sequence (looked up): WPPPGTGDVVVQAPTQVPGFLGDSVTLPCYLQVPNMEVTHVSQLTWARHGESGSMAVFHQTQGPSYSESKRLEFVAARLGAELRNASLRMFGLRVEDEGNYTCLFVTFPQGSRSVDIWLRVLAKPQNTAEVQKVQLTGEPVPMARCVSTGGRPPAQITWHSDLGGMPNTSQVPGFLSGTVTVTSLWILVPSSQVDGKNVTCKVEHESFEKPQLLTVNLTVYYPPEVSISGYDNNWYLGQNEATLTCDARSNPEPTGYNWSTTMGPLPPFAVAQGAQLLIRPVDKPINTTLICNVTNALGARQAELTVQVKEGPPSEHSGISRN
Nature of the experiment: MSD sandwich 'Dual - Potency #2': capture HVEM-Fc, TIGIT-Fc-LIGHT titrated, detection PVR-Biotin (same curve as the capture row). As for the experimental part:
as §3, §4

Experiment [5] deals with T5, recombinant human HVEM (human, UniProt Q92956 39-202).
T5 construct: Construct limits and tag not specified; also called rhHVEM; TNFRSF14
T5 sequence (looked up): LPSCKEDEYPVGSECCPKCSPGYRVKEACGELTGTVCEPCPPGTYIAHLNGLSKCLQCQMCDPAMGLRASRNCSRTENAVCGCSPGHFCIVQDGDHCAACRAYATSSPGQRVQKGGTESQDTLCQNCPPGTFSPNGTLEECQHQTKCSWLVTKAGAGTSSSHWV
Nature of the experiment: BLI (Octet-Red96), tagged rhHVEM immobilised on biosensor. The procedure:
as §1, §2

Experiment [6] addresses T4, recombinant human PVR. Nature of the experiment: BLI (Octet-Red96), tagged rhPVR immobilised on biosensor. As for the experimental part: as §1, §2
Experiment [7] concerns the target T4, recombinant human PVR. The experiment can be described thus: MSD sandwich 'Dual - Potency #1': capture LTβR-Fc, TIGIT-Fc-LIGHT titrated, detection PVR-Biotin (same curve as the capture row). As for the experimental part:
as §3, §4

Experiment [8] concerns the target T6, cell surface human HVEM (CHO-K1/hHVEM cells; Jurkat effector cells; human PBMC) (human, UniProt Q92956 39-283).
T6 construct: whole, on cells; also called cell surface HVEM
T6 sequence (looked up): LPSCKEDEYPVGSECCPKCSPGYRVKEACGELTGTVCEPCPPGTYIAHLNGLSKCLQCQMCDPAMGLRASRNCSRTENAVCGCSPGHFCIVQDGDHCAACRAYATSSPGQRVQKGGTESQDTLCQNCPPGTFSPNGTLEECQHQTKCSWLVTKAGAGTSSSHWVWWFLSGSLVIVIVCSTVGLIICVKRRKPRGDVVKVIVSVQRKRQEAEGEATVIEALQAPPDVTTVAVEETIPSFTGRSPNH
Nature of the experiment: flow cytometry, CHO-K1 cells stably expressing human HVEM; cell surface HVEM.

T2 sequence (Q9NQS3 58-404 limits assumed): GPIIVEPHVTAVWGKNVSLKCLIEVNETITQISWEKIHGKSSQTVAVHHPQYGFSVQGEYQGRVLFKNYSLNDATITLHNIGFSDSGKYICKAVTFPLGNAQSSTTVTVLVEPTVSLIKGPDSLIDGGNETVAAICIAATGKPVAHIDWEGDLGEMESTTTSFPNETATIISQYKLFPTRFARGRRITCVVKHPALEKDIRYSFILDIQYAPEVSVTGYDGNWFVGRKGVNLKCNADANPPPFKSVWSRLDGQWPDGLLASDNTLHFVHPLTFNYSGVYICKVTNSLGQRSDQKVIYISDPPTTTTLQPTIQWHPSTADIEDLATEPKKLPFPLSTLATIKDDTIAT
T1 sequence (P36941 31-227 limits assumed): as the sequence (P36941 31-227 limits assumed) above

B1: human TIGIT-Fc-LIGHT chimeric protein (Fc fusion)
chain: MMTGTIETTGNISAEKGGSIILQCHLSSTTAQVTQVNWEQQDQLLAICNADLGWHISPSFKDRVAPGPGLGLTLQSLTVNDTGEYFCIYHTYPDGTYTGRIFLEVLESSVAEHGARFQIPSKYGPPCPPCPAPEFLGGPSVFLFPPKPKDQLMISRTPEVTCVVVDVSQEDPEVQFNWYVDGVEVHNAKTKPREEQFNSTYRVVSVLTVLHQDWLSGKEYKCKVSSKGLPSSIEKTISNATGQPREPQVYTLPPSQEEMTKNQVSLTCLVKGFYPSDIAVEWESNGQPENNYKTTPPVLDSDGSFFLYSRLTVDKSRWQEGNVFSCSVLHEALHNHYTQKSLSLSLGKIEGRMDLQLHWRLGEMVTRLPDGPAGSWEQLIQERRSHEVNPAAHLTGANSSLTGSGGPLLWETQLGLAFLRGLSYHDGALVVTKAGYYYIYSKVQLGGVGCPLGLASTITHGLYKRTPRYPEELELLVSQQSPCGRATSSSRVWWDSSFLGGVVHLEAGEKVVVRVLDERLVRLRDGTRSYFGAFMV
notes: Said to exist as a hexamer (dimer of trimers); Glycosylated; also called hTIGIT-Fc-LIGHT; TIGIT-Fc(IgG4)-LIGHT
For B1, the “fold affinity relative to Fc-LIGHT control” value in experiment [1] is around 8 fold. The koff was found to be 0.00126 s⁻¹ in experiment [2], 0.000173 s⁻¹ in experiment [5] and 0.000103 s⁻¹ in experiment [6]. Besides, the values for the kon in experiment [2], in experiment [5] and in experiment [6] were 130000 M⁻¹ s⁻¹, 26100 M⁻¹ s⁻¹ and 25300 M⁻¹ s⁻¹, respectively. In addition, the EC50 came to 28.3 nM in experiment [3], 86 nM in experiment [4], 28.3 nM in experiment [7] and 65.8 nM in experiment [8]. Moreover, the results for the Kd in experiment [5] and in experiment [6] were 6.49 nM and 4.07 nM, respectively.
